Columns and labels:
Test in all cases: cell-based or functional assay
[1] = biological target: hemagglutinin (HA) of influenza A/Anhui/1/13 (H7N9) (influenza A virus)
[2] = biological target: hemagglutinin (HA) of influenza A/Indonesia/5/05 (H5N1) (influenza A virus)
[3] = biological target: hemagglutinin (HA) of influenza A/Mallard/Astrakhan/263/1982 (H14N5) (influenza A virus)
[4] = biological target: hemagglutinin (HA) of influenza A/Eurasian Wigeon/MPF461/07 (H5N2) (influenza A virus)
[5] = biological target: hemagglutinin (HA) of influenza B/Brisbane/60/08 (Victoria) (influenza B virus)
[6] = biological target: hemagglutinin (HA) of influenza A/Chick/Germany/N/49 (H10N7) (influenza A virus)
[7] = biological target: hemagglutinin (HA) of influenza A/Christchurch/16/10 (H1N1) (influenza A virus)
[8] = biological target: hemagglutinin (HA) of influenza A/Northern Shoveler/MPE2531/08 (H10N9) (influenza A virus)
[9] = biological target: hemagglutinin (HA) of influenza A/Eurasian Wigeon/MPD411/07 (H6N8) (influenza A virus)
[10] = biological target: hemagglutinin (HA) of influenza B/Florida/04/06 (Yamagata) (influenza B virus)
[11] = biological target: hemagglutinin (HA) of influenza A/Great Cormorant/MP2934/04 (H9N2) (influenza A virus)
[12] = biological target: hemagglutinin (HA) of influenza A/Hiroshima/52/05 (H3N2) (influenza A virus)
[13] = biological target: hemagglutinin (HA) of influenza A/PR8 H5N1 HK97 (H5N1) (influenza A virus)
[14] = biological target: hemagglutinin (HA) of influenza A/Aichi/2/68 (H3N2) (influenza A virus) (UniProt P03437)
[15] = biological target: hemagglutinin (HA) of influenza A/AnnArbor/23/57 (H2N2) (influenza A virus)
[16] = biological target: hemagglutinin (HA) of influenza A/HK/1174/99 (H3N2) (influenza A virus)
[17] = biological target: hemagglutinin (HA) of influenza A/Vietnam/1194/04 (H5N1) (influenza A virus)
[18] = biological target: hemagglutinin (HA) of influenza A/Johannesburg/33/94 (H3N2) (influenza A virus)
[19] = biological target: hemagglutinin (HA) of influenza A/Brisbane/10/07 (H3N2) (influenza A virus)
[20] = biological target: hemagglutinin (HA) of influenza A/Panama/2007/99 (H3N2) (influenza A virus)
[21] = biological target: hemagglutinin (HA) of influenza A/Env/MPJ1258/09 (H8N2) (influenza A virus)
[22] = biological target: hemagglutinin (HA) of influenza A/Northern Pintail/MPB1368/06 (H4N1) (influenza A virus)
[23] = biological target: hemagglutinin (HA) of influenza B/Malaysia/2506/04 (Victoria) (influenza B virus)
[24] = biological target: hemagglutinin (HA) of influenza A/Northern Shoveler/MPF518/08 (H7N7) (influenza A virus)
[25] = biological target: hemagglutinin (HA) of influenza A/Northern Pintail/MPC2085/07 (H11N9) (influenza A virus)
[26] = biological target: hemagglutinin (HA) of influenza A/Solomon Islands/3/2006 (IVR 145) (H1N1) (influenza A virus)
[27] = biological target: hemagglutinin (HA) of influenza A/Guiyang/1/57 (H2N2) (influenza A virus)
[28] = biological target: hemagglutinin (HA) of influenza A/Env/HK/MPU3156/05 (H2N2) (influenza A virus)
[29] = biological target: hemagglutinin (HA) of influenza A/Shanghai/2/13 (H7N9) (influenza A virus)
[30] = biological target: hemagglutinin (HA) of influenza A/Wisconsin/67/05 (H3N2) (influenza A virus)
[31] = biological target: hemagglutinin (HA) of influenza A/Ck/HK/SSP176/09 (H9N2) (influenza A virus)
[32] = biological target: hemagglutinin (HA) of influenza A/Great Cormorant/MPB1683/06 (H4N6) (influenza A virus)
[33] = biological target: hemagglutinin (HA) of influenza A/NIBRG/60 (A/mallard/Netherlands/12/00) (H7N3) (influenza A virus)
[34] = biological target: hemagglutinin (HA) of influenza A/Fukui/45/04 (H3N2) (influenza A virus)
[35] = biological target: hemagglutinin (HA) of influenza A/PR8 H7N7-NY (H7N7) (influenza A virus)
[36] = biological target: hemagglutinin (HA) of influenza A/Eurasian Wigeon/HK/MPF333/07 (H5N2) (influenza A virus)
[37] = biological target: hemagglutinin (HA) of influenza A/New Caledonia/20/99 (H1N1) (influenza A virus)
[38] = biological target: hemagglutinin (HA) of influenza A/Eurasian Wigeon/MPG1884/09 (H6N1) (influenza A virus)
[39] = biological target: hemagglutinin (HA) of influenza A/Taiwan/2/2013 (H6N1) (influenza A virus)
[40] = biological target: hemagglutinin (HA) of influenza B/Harbin/7/94 (Yamagata) (influenza B virus)
[41] = biological target: hemagglutinin (HA) of influenza A/Mississippi/03/01 274H (H1N1) (influenza A virus)
[42] = biological target: hemagglutinin (HA) of influenza A/Netherlands/219/2003 (H7N7) (influenza A virus)
[43] = biological target: hemagglutinin (HA) of influenza A/Env/HK/MPU3156/05 (H1N2) (influenza A virus)

MD3606 (Fc fusion)
Average neutralization titers [1]: 38.2 nM | Average neutralization titers [2]: 11.5 nM | Average neutralization titers [3]: 12.9 nM | Average neutralization titers [4]: 9.2 nM | ADCC induction (EC50 grade, FcγRIIIa reporter bioassay) [5]: < 0.1 µg/mL | Average neutralization titers [5]: 1 nM | Average neutralization titers [6]: 10.2 nM | Average neutralization titers [7]: 1 nM | Average neutralization titers [8]: 20.7 nM | Average neutralization titers [9]: 9.7 nM | ADCC induction (EC50 grade, FcγRIIIa reporter bioassay) [10]: < 0.1 µg/mL | Average neutralization titers [10]: 1 nM | Average neutralization titers [11]: 9.7 nM | Average neutralization titers [12]: 6.5 nM | Average neutralization titers [13]: 6.5 nM | Average neutralization titers [14]: 32.2 nM | Average neutralization titers [15]: 13.2 nM | Average neutralization titers [16]: 23 nM | Average neutralization titers [17]: 5.7 nM | Average neutralization titers [18]: 8.1 nM | Average neutralization titers [19]: 4.1 nM | Average neutralization titers [20]: 40.5 nM | Average neutralization titers [21]: 3.9 nM | Average neutralization titers [22]: 2.6 nM | Average neutralization titers [23]: 2.6 nM | Average neutralization titers [24]: 18.4 nM | Average neutralization titers [25]: 7.2 nM | Average neutralization titers [26]: 1.6 nM | Average neutralization titers [27]: 26.7 nM | Average neutralization titers [28]: 9.3 nM | Average neutralization titers [29]: 22.8 nM | ADCC induction (EC50 grade, FcγRIIIa reporter bioassay) [30]: < 0.1 µg/mL | Average neutralization titers [30]: 6.5 nM | Average neutralization titers [31]: 9 nM | Average neutralization titers [32]: 3.1 nM | Average neutralization titers [33]: 12.9 nM | Average neutralization titers [34]: 40.5 nM | Average neutralization titers [35]: 8.1 nM | Average neutralization titers [36]: 7 nM | Average neutralization titers [37]: 2.6 nM | Average neutralization titers [38]: 11.6 nM | Average neutralization titers [39]: 14.5 nM | Average neutralization titers [40]: 1 nM | Average neutralization titers [41]: 4.7 nM | Average neutralization titers [42]: 20.4 nM | Average neutralization titers [43]: 2.6 nM
